Source: patent US20180223372A1, “IDENTIFICATION OF PREDICTIVE BIOMARKERS ASSOCIATED WITH WNT PATHWAY INHIBITORS” (OncoMed Pharmaceutical, Inc., priority 2015, published 2018)

Experiments:
OMP-LU33 lung tumor = assay: OMP-LU33 NSCLC xenograft, OMP-18R5 vs control antibody; assay type: in vivo, NOD/SCID mice; conditions: OMP-LU33 carcinoma; 15-20 mg/kg intraperitoneally weekly; tumor volume vs control antibody
Description: (§1) The non-small cell lung cancer (NSCLC) tumor xenograft models OMP-LU02, OMP-LU11, OMP-LU24, OMP-LU25, OMP-LU33, OMP-LU45, and OMP-LU56 (and other OncoMed models described herein) were established at OncoMed Pharmaceuticals from minimally passaged, patient-derived tumor specimens. The tumor specimens were examined by a pathologist and classified as lung tumors. OncoMed relies on these classifications unless further analyses are done on any specific tumor and a reclassification is deemed necessary. […] Tumor-bearing mice were randomized into groups (n=8-10 per group) and treated with control antibody or anti-FZD antibody OMP-18R5. The antibodies were dosed at 15-20 mg/kg and were administered intraperitoneally on a weekly basis. […] Data are expressed as mean±S.E.M.
(§2) To determine if a tumor was responsive to anti-FZD antibody OMP-18R5, tumor volume data from mice treated with the control antibody were compared with tumor volume data from mice treated with OMP-18R5.

OMP-LU24 lung tumor = assay: OMP-LU24 NSCLC xenograft, OMP-18R5 vs control antibody; assay type: in vivo, NOD/SCID mice; conditions: OMP-LU24 squamous cell carcinoma; 15-20 mg/kg intraperitoneally weekly; tumor volume vs control antibody
Description: as §1, §2

OMP-LU25 lung tumor = assay: OMP-LU25 NSCLC xenograft, OMP-18R5 vs control antibody; assay type: in vivo, NOD/SCID mice; conditions: OMP-LU25 large cell carcinoma; 15-20 mg/kg intraperitoneally weekly; tumor volume vs control antibody
Description: as §1, §2

[1] = tested on: genes in the Wnt, Notch, and stem cell pathways; Wnt pathway target genes including AXIN2 and LEF1; assay: pharmacodynamics (PD) biomarker analysis; assay type: in vivo; conditions: data not shown
Experimental: In addition, a pharmacodynamics (PD) biomarker analysis was performed and confirmed inhibition of genes in the Wnt. Notch, and stem cell pathways by treatment with OMP-18R5.

OMP-LU56 lung tumor = assay: OMP-LU56 NSCLC xenograft, OMP-18R5 vs control antibody; assay type: in vivo, NOD/SCID mice; conditions: OMP-LU56 carcinoma; 15-20 mg/kg intraperitoneally weekly; tumor volume vs control antibody
Description: as §1, §2

OMP-LU02 lung tumor = assay: OMP-LU02 NSCLC xenograft, OMP-18R5 vs control antibody; assay type: in vivo, NOD/SCID mice; conditions: OMP-LU02 adenocarcinoma; 15-20 mg/kg intraperitoneally weekly; tumor volume vs control antibody
Description: as §1, §2

OMP-LU45 lung tumor = assay: OMP-LU45 NSCLC xenograft, OMP-18R5 vs control antibody; assay type: in vivo, NOD/SCID mice; conditions: OMP-LU45 adenocarcinoma; 15-20 mg/kg intraperitoneally weekly; tumor volume vs control antibody
Description: as §1, §2

OMP-LU11 lung tumor = assay: OMP-LU11 NSCLC xenograft, OMP-18R5 vs control antibody; assay type: in vivo, NOD/SCID mice; conditions: OMP-LU11 squamous cell carcinoma; 15-20 mg/kg intraperitoneally weekly; tumor volume vs control antibody
Description: as §1, §2

B1: OMP-18R5: anti-FZD IgG2 antibody binding FZD1, FZD2, FZD5, FZD7, FZD8; ATCC deposit PTA-9541; heavy/light chain SEQ ID NO:11 and 12 (antibody)
heavy: EVQLVESGGGLVQPGGSLRLSCAASGFTFSHYTLSWVRQAPGKGLEWVSVISGDGSYTYYADSVKGRFTISSDNSKNTLYLQMNSLRAEDTAVYYCARNFIKYVFANWGQGTLVTVSSASTKGPSVFPLAPCSRSTSESTAALGCLVKDYFPEPVTVSWNSGALTSGVHTFPAVLQSSGLYSLSSVVTVPSSNFGTQTYTCNVDHKPSNTKVDKTVERKCCVECPPCPAPPVAGPSVFLFPPKPKDTLMISRTPEVTCVVVDVSHEDPEVQFNWYVDGVEVHNAKTKPREEQFNSTFRVVSVLTVVHQDWLNGKEYKCKVSNKGLPAPIEKTISKTKGQPREPQVYTLPPSREEMTKNQVSLTCLVKGFYPSDIAVEWESNGQPENNYKTTPPMLDSDGSFFLYSKLTVDKSRWQQGNVFSCSVMHEALHNHYTQKSLSLSPGK
light: DIELTQPPSVSVAPGQTARISCSGDNIGSFYVHWYQQKPGQAPVLVIYDKSNRPSGIPERFSGSNSGNTATLTISGTQAEDEADYYCQSYANTLSLVFGGGTKLTVLGQPKAAPSVTLFPPSSEELQANKATLVCLISDFYPGAVTVAWKADSSPVKAGVETTTPSKQSNNKYAASSYLSLTPEQWKSHRSYSCQVTHEGSTVEKTVAPTECS
modifications: Heavy chain amino acid sequence; Light chain amino acid sequence
Classification (OMP-LU33 lung tumor): Responder | Classification (OMP-LU24 lung tumor): Responder | Classification (OMP-LU25 lung tumor): Non-responder | Wnt pathway target genes including AXIN2 and LEF1 ([1]; OMP-18R5 as a single agent): down-regulated significantly | genes in the Wnt, Notch, and stem cell pathways ([1]; treatment with OMP-18R5): inhibition | Classification (OMP-LU56 lung tumor): Non-responder | Classification (OMP-LU02 lung tumor): Non-responder | Classification (OMP-LU45 lung tumor): Non-responder | Classification (OMP-LU11 lung tumor): Responder
